Drawing on paper doi:10.1101/2024.02.06.578578, this text covers stoichiometry N for one substance.

In this experiment the target is SkSGLc, SkSGL from Sanguibacter keddieii (KEGG locus tag, Sked_30460) with a C-terminal His6-tag (Sanguibacter keddieii). The experiment can be described thus: SEC. On the technique in general: SEC sorts molecules by how far they enter the pores of the column.

As to “SkSGLc, SkSGL from Sanguibacter keddieii (KEGG locus tag, Sked_30460) with a C-terminal His6-tag (enzyme)”, the stoichiometry N (as a rule, the number of molecules, sites or subunits per partner or assembly) turned out to be 2.
